The DeepSol protein solubility set

test: soluble on expression in E. coli; label from the status in PepcDB or PDB records

| Sequence | soluble on expression in E. coli |
| --- | --- |
| MVFGFLKGVRRRPPLNRACPPIPESKSNESIMSHASRISEHQKAAAAAAATSETTTGDLVIENRNVVDVLHRLDANSNIALPPSSNIRKSKEKKAKMSSTPRSPLMSMANSVKSKLTKITHLGRSSNESSGSSSNIKTSQSFSGIRQPKQIPKRIDQNANRVIKSSSMEVPSTSKVCIPQDPTPLIDDKIEEISEAGLISKSEMAPPKPKEHVCVKLEEDVLVVTKEFDERYPGQKRSASPDVPMVEESQTMSEVDQLPSEQVAETFSEDNVNELDNNANQKTPGPVRRIIQETTTTTITTTTFDSPIPIIEKMEVERPEEAEDVIVIEAPEPVQPPIPSPKKERFTSPERYILLVKTPEALRKHRTLTIGEKDPTEVDTEEKIQYTRLETVKFKEVKEKVKYEEPVPKEKFILTMKTPEAIRRHHTFTIRDKSPEEMNKITKITKSQSDVHVSKRAAKKLVKQASEPERRDLFEEKEDVVPEPKFVIVMKTPECLRRHHTFTIGDRPKSPDYPYIEEGEITEPIATIGPPADRRKKEEAKERKKREWEEYETPPKEKFILTTTTPLAIRKYQTFVVEPKDEKTALPQSASADAVMLAKKGKVQRKNVTSSIQQLSLDEPITSPSRKPVSPEPRHLFVMGGRRSTTPQEDRKVPEPPRNLKLDTDRSQSDHAELLEERKSTMSGDLTSPEEEIPMDTNLTPTTEEVMEAVIVSRRIEGLMTSPIEEEPEGLTSSIRDLSIRSLAKETERPAPVFTPPSPPKENPFHVMTVPKSTLTSSSESAMPMTSSSSSIRAKPNQLPIKKTIQVVDPMHIVELKPEHKSKKEALAAKSLRNAGKMLTPSFLRKEKKGPKKSLYAKTTSSGRQHISEKKEK | not soluble |
| MVFSDQQLFEKVVEILKPFDLSVVDYEEICDRMGESMRLGLQKSTNEKSSIKMFPSYVTKTPNGTETGNFLALDLGGTNYRVLSVTLEGKGKSPRIQERTYCIPAEKMSGSGTELFKYIAETLADFLENNGMKDKKFDLGFTFSFPCVQKGLTHATLVRWTKGFSADGVEGHNVAELLQTELDKRELNVKCVAVVNDTVGTLASCALEDPKCAVGLIVGTGTNVAYIEDSSKVELMDGVKEPEVVINTEWGAFGEKGELDCWRTQFDKSMDIDSLHPGKQLYEKMVSGMYLGELVRHIIVYLVEQKILFRGDLPERLKVRNSLLTRYLTDVERDPAHLLYNTHYMLTDDLHVPVVEPIDNRIVRYACEMVVKRAAYLAGAGIACILRRINRSEVTVGVDGSLYKFHPKFCERMTDMVDKLKPKNTRFCLRLSEDGSGKGAAAIAASCTRQN | soluble |
| MVGINNWSSNLDAYRILQEAQSLTEEPPHFDTAFPIEPESIAPPEHHNHRYVIGQEEHRVRRLAANRNKGRPSARAFGNARNNSTRN | not soluble |
| MVGWWPVGRRQAWHRFFPCHRRPALRCDAHSFFAPGKHIMAHRILTLGEITDGFDVVLSDVWGVLHNGVSAFPDAAVALHEARKAGKTVVLITNSPRPAPGVIAQLRVLGVPDEAYDRIITSGDVTRGLIAEGPKKVFLLGPERDMPLLEGLDVERVGEAEAQSVVCTGFFDDETETPEDYTEMLKGFIARKVPMICANPDLVVERGERIIPCAGAMAAYYEQLGGEVRIAGKPHAPIYEACLAAAKDVRGAFAKDRVLAIGDGMPTDVKGAIASGLNLLYISGGIHAAEYTLNGQTDEALLNAYLKGQGAAPGWWMPRLA | not soluble |
| MVHYYRLSLKSRQKAPKIVNSKYNSILNIALKNFRLCKKHKTKKPVQILALLQEIIPKSYFGTTTNLKRFYKVVEKILTQSSFECIHLSVLHKCYDYDAIPWLQNVEPNLRPKLLLKHNLFLLDNIVKPIIAFYYKPIKTLNGHEIKFIRKEEYISFESKVFHKLKKMKYLVEVQDEVKPRGVLNIIPKQDNFRAIVSIFPDSARKPFFKLLTSKIYKVLEEKYKTSGSLYTCWSEFTQKTQGQIYGIKVDIRDAYGNVKIPVLCKLIQSIPTHLLDSEKKNFIVDHISNQFVAFRRKIYKWNHGLLQGDPLSGCLCELYMAFMDRLYFSNLDKDAFIHRTVDDYFFCSPHPHKVYDFELLIKGVYQVNPTKTRTNLPTHRHPQDEIPYCGKIFNLTTRQVRTLYKLPPNYEIRHKFKLWNFNNQISDDNPARFLQKAMDFPFICNSFTKFEFNTVFNDQRTVFANFYDAMICVAYKFDAAMMALRTSFLVNDFGFIWLVLSSTVRAYASRAFKKIVTYKGGKYRKVTFQCLKSIAWRAFLAVLKRRTEIYKGLIDRIKSREKLTMKFHDGEVDASYFCKLPEKFRFVKINRKASI | soluble |
| MVIATIQAEDHSQQSGTQQETTTDTGGGKNVGYIDAGDWLSYAGTPVNIPSSGSYLIEYRVASQNGGGSLTFEEAGGAPVHGTIAIPATGGWQTWTTIQHTVNLSAGSHQFGIKANAGGWNLNWIRINKTH | soluble |
| MVIHKINKLIATIKTQGIRKAIVKVAAQFKFSYKYYFIYTYNLNSSSPAIAVNEAINTNENDYSIKWWSESDFCKNKTTYLEKRSDMTDSYIENWLPLGHQTVVARSLPNNDIIGDMWLAFDNFPFPSKSKSLRDWAIENHYGYAFMAFVQPSHRGKKILPCLMNEQLKLVKDNNKKGLMALIMPKSKSSHKSFSSMGFKRVGKLHVLQLFSNNHTWISV | not soluble |
| MVIKDPRITRFRKMLAQATNYEQWKAAALELDFLEGNAEWKEDFASDLYHYELIYDRLSNLKQYRQQNDFERLKRALREGLHHDLGNMGNPALYTRSRVGTKHLIEEYITQVCESLDYLCDHPVPGFPVYDKLQFFRDTLTSYGRPTLLLSGGASLGMFHFGVIKALWEKGLLPQVIAGSSIGAIIAGILGIHTDAEIPEMLVPESHNLKAWKWRGLLSAMRGTGLMDQDTLRRCLRENIGDYTFEEAYQRTGRSINISVSPVQAHQKARLLCGYTSPYLLVWSAALASAAVPGIFPPVTLMKKDLNGNSLPYMPRLKFVDGSVVSDLPIERLMHLYDVNFTIVSQTNPHVVPFLTDRGQDEKLSLTNLPSHLLKSEVQFHGQGVFDYLRKRVRPEILRQLSGQMYTIMAQRYSGDVTIAPNYSLRHFRRMLANPSPEYVREMILEGERATWPKISMIRSHARISKTLERCVRRLKQQNRRAAELEHHHHHH | not soluble |
| MVKEFNTQTELSVRLEALWAVLSKDFITVVPKVLPHIVKDVQLIEGDGGVGTILIFNFLPEVSPSYQREEITEFDESSHEIGLQVIEGGYLSQGLSYYKTTFKLSEIEEDKTLVNVKISYDHDSDIEEKVTPTKTSQSTLMYLRRLERYLSNGSA | soluble |
| MVKKMVIAVRKDLDMGKGKIAAQVAHAAVTCAIRSMKINRDVFNEWYDEGQRKIVVKVNDLDEIMEIKRMADSMGIVNEIVQDRGYTQVEPGTITCIGLGPDEEEKLDKITGKYKLL | soluble |
| MVKKSYVINWARDLANRGVGVNYDGAFGSQCVDLPFWILGKFFGRPISGNAIDLLNSAKAAGYQVIYDAPGVNPRVGDIFVMHSIAYDGKDYGHTGLVIEDSDGHSIKTIEQNVDGNADNLYVGGPARYRTRSFNGIIGWIRPPYENEILENKREETDMRDFFVITNSEYTFAGVHYAKGAVLHVSPTQKRAFWVIADQENFIKQVNKNIEYVEKNASPAFLQRIVEIYQVKFEGKNVH | soluble |
| MVKSIVILIETVTMKIPAVYSDGSFKTFNDSETTAQKLVDSGVVNTFAFGPTLVENGKVAVSENEEVGQDMADNPRTAIVVNEESDRSVHYIVIVSDGRTSESSGLTLYEMAELMKSYGVMTGYNLDVGDSSTMYSLEHHHHHH | not soluble |
| MVLAERDDRLLGFASFRRTEDFAHYQPQRADAPRAYICEAVVHPAAAGQGLGSALLEAVLAQLADEGIEDVYIDRHEENLASAGMMRKAGFV | soluble |
| MVLKERHKKICLLPSYSRLAHYPGLLMLTTLIYRSHIRGDEPVKKIEEMVSIANRRNMRSDVTGILLFNGSHFFQLLEGPEEQVQMIYRAICQDPRHYNIVELLCDYAPARRFGKAGMELFDLRLHERDDVLQAVFDKGTSKFQLTYDDRALQFFRTFVLATEQSTYFEIPAEDSWLFIADGSDKELDSCTLSSNINDHFAFHPIVDPLSRRIIAFEAIVQKNEDSPSAIAVGQRKDEEIYTADLKSKALAFAMAHALKLGDKMISINLLPMTLVNKPDAVSFLLDEIKANALVPEQIIVEFTESEVISRFDEFAEAVKSLKAAGISVAIDHFGAGFAGLLLLSRFQPDRIKISQELITNVHKSGPRQAIIQAIMKCCTSLEIQVSAMGVATPEEWMWLESAGIEMFQGDLFSKAKLNGIPSVAWPEKK | not soluble |
